Reference: publication PMC2941729 (Molecular Microbiology, 2010)

Target: the molecule itself
Assay: SEC

B1: G266DΔGAF–His (domain or fragment, Escherichia coli K12, UniProt P37013 171-504, looked up)
chain: MLPGDATPFEAVKQTQMIGLSPGMTQLKKEIEIVAASDLNVLISGETGTGKELVAKAIHEASPRAVNPLVYLNCAALPESVAESELFGHVKGAFTDAISNRSGKFEMADNGTLFLDEIGELSLALQAKLLRVLQYGDIQRVGDDRCLRVDVRVLAATNRDLREEVLAGRFRADLFHRLSVFPLSVPPLRERGDDVILLAGYFCEQCRLRQGLSRVVLSAGARNLLQHYSFPGNVRELEHAIHRAVVLARATRSGDEVILEAQHFAFPEVTLPTPEVAAVPVVKQNLREATEAFQRETIRQALAQNHHNWAACARMLETDVANLHRLAKRLGLKD
binding result: binds
